{"source": "patent US5854388A", "about": "“Angiotensin IV peptides and receptor” (Washington State University Research Foundation, priority 1994, dated 1998)", "key": {"[1]": {"biological_target": "T1, AT4 receptor (Cavia porcellus, UniProt H0VNM7)", "T1 sequence (H0VNM7 1-1025)": "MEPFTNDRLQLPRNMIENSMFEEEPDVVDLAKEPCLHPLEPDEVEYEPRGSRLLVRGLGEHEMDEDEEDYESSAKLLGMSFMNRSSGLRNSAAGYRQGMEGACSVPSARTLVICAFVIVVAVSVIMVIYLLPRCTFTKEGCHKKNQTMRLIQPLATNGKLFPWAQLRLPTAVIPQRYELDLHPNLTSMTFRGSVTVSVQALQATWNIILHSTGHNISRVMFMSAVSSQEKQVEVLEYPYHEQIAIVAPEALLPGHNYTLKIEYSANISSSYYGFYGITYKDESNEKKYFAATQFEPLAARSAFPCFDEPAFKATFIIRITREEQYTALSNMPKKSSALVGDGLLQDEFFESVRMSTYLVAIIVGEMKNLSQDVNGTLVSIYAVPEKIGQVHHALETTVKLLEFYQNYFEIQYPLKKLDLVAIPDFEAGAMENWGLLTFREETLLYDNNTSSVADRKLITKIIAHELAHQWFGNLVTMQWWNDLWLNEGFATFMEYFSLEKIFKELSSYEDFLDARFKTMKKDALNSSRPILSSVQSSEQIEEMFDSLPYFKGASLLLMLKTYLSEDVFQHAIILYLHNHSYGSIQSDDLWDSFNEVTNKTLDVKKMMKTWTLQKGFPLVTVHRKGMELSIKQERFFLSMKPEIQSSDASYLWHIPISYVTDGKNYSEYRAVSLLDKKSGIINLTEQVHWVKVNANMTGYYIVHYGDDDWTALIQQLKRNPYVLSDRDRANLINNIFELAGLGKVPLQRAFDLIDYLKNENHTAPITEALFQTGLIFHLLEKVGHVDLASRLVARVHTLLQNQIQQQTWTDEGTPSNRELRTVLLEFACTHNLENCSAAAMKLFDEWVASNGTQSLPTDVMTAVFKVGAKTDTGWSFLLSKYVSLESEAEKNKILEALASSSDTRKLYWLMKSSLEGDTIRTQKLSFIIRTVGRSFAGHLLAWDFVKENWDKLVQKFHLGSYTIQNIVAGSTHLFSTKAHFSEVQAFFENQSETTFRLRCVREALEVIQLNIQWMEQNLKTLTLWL", "test": "125I-AIV binding and competition, guinea pig hippocampus membranes", "details": "competition of 0.6 nM 125I-AIV"}, "[2]": {"system": "rat kidney", "test": "Renal cortical blood flow (laser doppler) and arterial pressure after infusion into the renal artery", "type": "in vivo", "details": "infusion into renal artery"}}, "note": "pKi: −log10 of the molar value."}
{"substance": "Asp1 Arg2 Val3 Tyr4 Ile5 His6 Pro7 Phe8 (DRVYIHPF) [AII]", "values": [{"measurement": "pKi", "setting": "[1]", "value": "< 6.00"}, {"measurement": "effect on renal blood flow (in words)", "setting": "[2]", "value": "dramatic decrease in renal blood flow"}]}
